{
  "source": "paper PMC6028955",
  "about": "(The Journal of Biological Chemistry, 2018)",
  "proteins": {"B1": {"name": "human SSRP1 lacking the C-terminal ID regions and the HMG domain (residues 1–433) (domain or fragment, UniProt Q08945 1-433, looked up)", "chain": "MAETLEFNDVYQEVKGSMNDGRLRLSRQGIIFKNSKTGKVDNIQAGELTEGIWRRVALGHGLKLLTKNGHVYKYDGFRESEFEKLSDFFKTHYRLELMEKDLCVKGWNWGTVKFGGQLLSFDIGDQPVFEIPLSNVSQCTTGKNEVTLEFHQNDDAEVSLMEVRFYVPPTQEDGVDPVEAFAQNVLSKADVIQATGDAICIFRELQCLTPRGRYDIRIYPTFLHLHGKTFDYKIPYTTVLRLFLLPHKDQRQMFFVISLDPPIKQGQTRYHFLILLFSKDEDISLTLNMNEEEVEKRFEGRLTKNMSGSLYEMVSRVMKALVNRKITVPGNFQGHSGAQCITCSYKASSGLLYPLERGFIYVHKPPVHIRFDEISFVNFARGTTTTRSFDFEIETKQGTQYTFSSIEREEYGKLFDFVNAKKLNIKNRGLKEG", "notes": "structure-specific recognition protein-1 (SSRP1), human, residues 1–433 (PH1–PH4; lacks ID1, HMG, ID2); Homodimer by sedimentation equilibrium; predicted monomer mass 49.8 kDa; also called hSSRP1ΔCTD; hSSRP1; source: E. coli BL21 (DE3) Gold, purified (Ni-NTA, TEV treatment, anion-exchange, size-exclusion chromatography); not shown: His6, N-terminal, cleaved"}},
  "target": "the molecule itself",
  "assay": "AUC; sedimentation velocity (4 °C, 49,000 rpm) and sedimentation equilibrium; 25 mM Tris-HCl pH 7.6, 200 mM NaCl, 2 mM TCEP; SE fitted with a single species model",
  "data": [
    {"protein": "B1", "values": [
      {"measurement": "stoichiometry N", "value": 2}
    ]}
  ]
}
